Laboratory results as given in article PMC11132685.

Biological target: tetrabrachion-stabilised recombinant N2 NA (NACHO) of A/MORAMANGA/1907/2017 (not stated | influenza A virus (H3N2) A/MORAMANGA/1907/2017)
Experiment: SEC-MALS; purified NACHOs; oligomeric state; conditions not given

**Q.** With “tetrabrachion-stabilised recombinant N2 NA (NACHO) of A/MORAMANGA/1907/2017 (enzyme)” as the substance, how does the stoichiometry N read?
**A.** 4
